Target: the molecule itself
Assay: crystal structure

B1: BrabA.11339.a, putative β-lactamase-like protein from Brucella melitensis biovar Abortus 2308 (natural protein)
chain: TSPRNCLRFTLLGCGSSPGVPRINGDWGKCDPKNPKNRRRRASLLVERYDAEGNNTVVVIDTGPDFRMQMIDSGVHMLDAAVYTHPHADHIHGIDDLRTYVVDNGRLMDVYANRLTRNRLYDTFGYCFETPVGSSYPPILSMHDIAPETPFSIEGAGGAIRFEPFSQVHGDIESLGFRIGSVVYCTDVSAFPEQSLQYIKDADVLIIGALQYRPHPSHFSLGEALEWIEKLSPKRAILTHMHVPLDYETVMRETPHHVEPGYDGLRFEVAV
notes: also called BAB1_1016
  stoichiometry N: 2
